To fix the notation:
B1: nCoV617 (antibody, V domains shown)
VH: QVQLVESGGGVVQPGRSLRLSCAASGFTFSSYAMHWVRQAPGKGLEWVALISYDGSNKYADSVKGRFTISRDNSKNTLYLQMNSLRAEDTAVYYCARGLGLRFLEWPISSYWGQGTLVTVSS
VL: not shown
notes: IgG1; IGHV3-30
B2: C548 (antibody, V domains shown)
VH: QVQLVQSGAEVKKPGSSVKVSCKASGGTFSSYAISWVRQAPGQGLEWMGGIIPIFGTANYAQKFQGRVTITADESTSTAYMELSSLRSEDTAVYYCARREAYGPRDYYYYYGMDVWGQGTTVTVSS
VL: QSALTQPPSASASLGASVTLTCTLSSGYSNYKVDWYQQRPGKGPRFVMRVGTGGIVGSKGDGIPDRFSVLGSGLNRYLTIKNIQEEDESDYHCGADQGSGSNFVGVFGGGTKLTVG
notes: IgG1; IGHV1-69-encoded
B3: 2-15 (antibody, V domains shown)
VH: QVQLVQSGAEVKKPGASVRVSCKASGYTFTGYYMHWVRQAPGQGLEWMGWINPISDGTNYAQKFQGWVTMTRDTSISTVYMELSRLRSDDTAVYYCARGGSRCSGGNCYGWAYDAFDIWGQGTMITVSS
VL: QSALTQPASVSGSPGQSITISCTGTSSDVGGYNFVSWYQQHPGKAPKLMIYDVSKRPSGVSNRFSGSKSGNTASLTISGLQAEDEADCYCSSYTSSSTFVFGTGTKVTVL
notes: IgG1; IGHV1-2
B4: CV07-270 (antibody, V domains shown)
VH: QVQLVESGGGLVKPGGSLRLSCAASGFTFSDYYMTWIRQAPGKGLEWVSYISSSGSTIYYADSVKGRFTISRDNAKNSLYLQMNSLRAEDTAVYYCARARGSSGWYRIGTRWGNWFDPWGQGTLVTVSS
VL: QSALTQPASVSGSPGQSITISCTGTSSDVGGYNYVSWYQQHPGKAPKLMIYEVSNRPSGVSNRFSGSKSGNTASLTISGLQAEDEADYYCSSYTSSSNVVFGGGTMLTVL
B5: BD-667 (antibody, V domains shown)
VH: QVQLVESGGGLVKPGGSLRLSCAASGFRFSDYYMNWIRQAPGKGLEWISYIGSGGFATYYGDSVKGRFTVSRDDAENSLYLQMNSLRAEDTAVYYCARGVTSYSDNSGNYRTDDAFDIWGQGTMVTVSS
VL: EIVMTQSPATLSVSPGERATLSCRASQSVSRNLAWYQQRPGQAPRLLIYGASTRATGVAARFTGSGFGTEFTLTISGLQSEDFAVYYCQEYNNWPPWTFGQGTKVEIK
notes: IgG1; IGHV3-11
B6: A19-61.1 (antibody, V domains shown)
VH: QVQLVESGGGVVQPGRSLRLSCAASGFTFSSYAFHWVRQAPGKGLEWVAVISYDGSNQYYADSVKGRFTISRDNSKNTLYLQMNSLRADDTAVYYCARDLAIAVAGTWHYYNGMDVWGQGTTVTVSS
VL: DIQMTQSPSSVSASVGDRVIITCRASQGISSWLAWYQQKPGKAPKVLIYDASSLQSGVPSRFSGSGYGTDFTLTISSLQPEDSATYYCQQAKSFPITFGQGTRLEIK
notes: IgG1; IGHV3-30
B7: MW01 (antibody, V domains shown)
VH: EVQLVQSGAEVKKPGSSVKVSCKASGGTFSSFSISWVRQAPGQGLEWMGRIIPVLGIANYAQEVQGRVTITADKSTSTAYMELSSLRSEDTAVYFCTTDRFVEPATGPFFDYWGQGTLVTVSS
VL: EIVMTQSPATLSVSPGERATLSCRASQSVSSNLAWYQQKPGQAPRLLIYGASTRATGIPARFSGSGSGTEFTLTISSLQSEDFAVYYCQQYSNWLTFGGGTKVEIK
B8: FC08 (antibody, V domains shown)
VH: QLLQQSGAEVKKPGSSVKVSCKASGGTFSSYAISWVRQAPGQGLEWMGGIIPIIGIANYAQKFQGRVTITADKSTSTAYMELSSLRSEDTAVYYCARERGYSGYGAAYYFDYWGQGTLVTVSS
VL: SVLTQPPSVSGAPGQRVTISCTGSSSNIGAGYDVHWYQQLPGTAPKLLIYGNSNRPSGVPDRFSGSKSGTSASLAITGLQAEDEADYYCQSYDSSLSGSVFGGGTKLTVL
B9: R1-32 (antibody, V domains shown)
VH: EVQLVESGAEVKKPGSSVKVSCKASGGTFSSYAISWVRQAPGQGLEWMGGIIPILGIANYAQKFQGRVTITADKSTSTAYMELSSLRSEDTAVYYCARENGYSGYGAAANFDLWGRGTLVTVSS
VL: QSVLTQPPSVSGAPGQRVTISCTGSSSNIGAGYDVHWYQQLPGTAPKLLIYGNSNRPSGVPDRFSGSKSGTSASLAITGLQAEDEADYYCQSYDSSLSGSVFGGGTKLTVL
B10: LY-CoV555 (antibody, V domains shown)
VH: QVQLVQSGAEVKKPGSSVKVSCKASGGTFSNYAISWVRQAPGQGLEWMGRIIPILGIANYAQKFQGRVTITADKSTSTAYMELSSLRSEDTAVYYCARGYYEARHYYYYYAMDVWGQGTAVTVSS
VL: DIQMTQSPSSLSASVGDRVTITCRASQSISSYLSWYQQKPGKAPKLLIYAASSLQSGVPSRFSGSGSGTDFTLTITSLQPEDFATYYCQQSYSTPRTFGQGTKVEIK

In the first experiment the target is T1, SARS-CoV-2 WT-RBD (SARS-CoV-2, UniProt P0DTC2).
T1 construct: not shown: 6-His, C-terminal, kept
Put plainly: BLI. Conditions: both partners purified.
In the case of B1, the binding result is given as “binds”.

In the case of B2, the binding result was “binds”.

B3: the binding result was “binds”.

In the case of B4, the binding result is given as “binds”. For the molecule B5, the binding result is “binds”. For B6, the binding result is “binds”.

In a further experiment the target is T1, SARS-CoV-2 WT-RBD. Kind of experiment: ELISA. Conditions: both partners purified. Background: ELISA stands for enzyme-linked immunosorbent assay.
In the case of B7, the binding result is reported as “binds”. For B8, the binding result is recorded as “binds”. Still for that read-out and setting: the result for B9 reads “binds”; that for B10, “binds”.

Values taken from PMC9662066 (Emerging Microbes & Infections, 2022).
